Laboratory results taken from the supplement of paper PMC10567573.

B1: HDAC6 (parent)
chain: KMKTRELHRESSNFDSIYICPSTF
B2: CCNC (parent)
chain: QSSHYLQWILDKQDLLKERQKDLK

Variants of: B1
Assay: protein stability index of a GFP-peptide fusion (GPS, HEK-293T) (PSI 1-6); higher = more stable
Details: c terminus: a fixed tail appended
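Further: lentivirally expressed fusions sorted by FACS into six bins by GFP to DsRed ratio, PSI derived from sequencing read proportions per bin multiplied by bin number.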

| Variant | protein stability index |
| --- | --- |
| Y18T | 3.32 |
| Y18F | 2.05 |
| Y18C | 2.29 |
| Y18A | 4.07 |
| Y18W | 2.38 |
| Y18E | 3.45 |
| Y18H | 2.41 |
| Y18L | 2.82 |
| Y18G | 3.09 |
| Y18P | 3.33 |
| Y18Q | 2.96 |
| Y18M | 2.4 |
| Y18I | 2.31 |
| Y18N | 3.56 |
| Y18K | 2.44 |
| Y18S | 2.72 |
| Y18R | 2.52 |
| Y18D | 3.8 |
| Y18V | 2.86 |
| I19N | 3.22 |
| I19L | 3.14 |
| I19G | 2.91 |
| I19T | 2.25 |
| I19E | 3.81 |

| Variant | protein stability index |
| --- | --- |
| I19P | 3.35 |
| I19A | 2.74 |
| I19Q | 3.2 |
| I19Y | 2.16 |
| I19W | 3.01 |
| I19H | 3.1 |
| I19V | 2.8 |
| I19M | 1.44 |
| I19S | 2.35 |
| I19R | 2.47 |
| I19D | 3.44 |
| I19K | 2.94 |
| I19C | 2.34 |
| I19F | 2.81 |
| F24S | 2.96 |
| F24K | 3.36 |
| F24R | 2.98 |
| F24Y | 2.88 |
| F24Q | 2.62 |
| F24E | 3.87 |
| F24I | 2.31 |
| F24T | 3.65 |
| F24V | 2.82 |
| F24M | 2.65 |

| Variant | protein stability index |
| --- | --- |
| F24A | 3.73 |
| F24N | 2.95 |
| F24C | 2.97 |
| F24L | 2.69 |
| F24H | 2.76 |
| F24P | 2.75 |
| F24G | 3.15 |
| F24D | 3.99 |
| F24W | 2.65 |
| I17F | 1.85 |
| I17E | 3.19 |
| I17P | 2.41 |
| I17T | 3.25 |
| I17M | 2.57 |
| I17Q | 2.48 |
| I17H | 3.15 |
| I17L | 2.13 |
| I17Y | 2.11 |
| I17W | 2.06 |
| I17R | 2.97 |
| I17G | 2.51 |
| I17D | 3.75 |
| I17N | 2.9 |
| I17S | 2.45 |

| Variant | protein stability index |
| --- | --- |
| I17K | 3.31 |
| I17C | 2.49 |
| I17A | 2.96 |
| I17V | 2.27 |
| N13P | 2.49 |
| N13Q | 2.44 |
| N13M | 2.58 |
| N13L | 1.74 |
| N13V | 1.98 |
| N13W | 1.93 |
| N13T | 2.35 |
| N13Y | 1.64 |
| N13R | 3.21 |
| N13S | 1.97 |
| D15W | 2.21 |
| D15C | 2.82 |
| D15S | 2.04 |
| D15V | 2.11 |
| D15Q | 1.96 |
| D15K | 1.79 |
| D15N | 2.01 |
| D15L | 4.27 |
| D15F | 2.02 |
| D15H | 1.44 |

| Variant | protein stability index |
| --- | --- |
| D15R | 1.89 |
| D15P | 1.68 |
| D15M | 1.92 |
| D15G | 1.69 |
| D15A | 2 |
| D15T | 1.9 |
| D15E | 1.93 |
| D15Y | 1.63 |
| C20Q | 3.13 |
| C20H | 2.94 |
| C20S | 2.48 |
| C20N | 3.23 |
| C20M | 2.17 |
| C20E | 3.34 |
| C20D | 2.54 |
| C20Y | 2.07 |
| C20A | 2.86 |
| C20I | 1.69 |
| C20P | 2.69 |
| C20K | 2.15 |
| C20R | 2.61 |
| C20F | 2.21 |
| C20L | 2.2 |
| C20V | 2.24 |

| Variant | protein stability index |
| --- | --- |
| C20G | 2.22 |
| C20T | 2.76 |
| S16C | 1.76 |
| S16G | 2.14 |
| S16F | 2.08 |
| S16M | 1.66 |
| S16K | 2.29 |
| S16Q | 1.91 |
| S16R | 2.83 |
| S16A | 1.88 |
| S16I | 1.54 |
| S16T | 2.62 |
| S16P | 2.47 |
| S16N | 1.31 |
| S16E | 3.02 |
| S16D | 2.68 |
| S16V | 2.12 |
| S16Y | 1.85 |
| S16L | 1.74 |
| S16H | 1.99 |
| T23Y | 1.83 |
| T23N | 3 |
| T23H | 2.28 |
| T23P | 2.61 |

| Variant | protein stability index |
| --- | --- |
| T23V | 2.92 |
| T23A | 2.16 |
| T23C | 2.5 |
| T23M | 2.44 |
| T23E | 1.96 |
| T23R | 2.05 |
| T23G | 2.46 |
| T23W | 1.62 |
| T23K | 2.25 |
| T23S | 2.59 |
| T23L | 2.21 |
| T23I | 1.71 |
| T23F | 1.96 |
| T23D | 2.56 |
| S22C | 1.85 |
| S22P | 2.65 |
| S22H | 2.09 |
| S22T | 1.74 |
| S22F | 2.19 |
| S22D | 2.76 |
| S22G | 2.06 |
| S22N | 2.13 |
| S22V | 1.6 |
| S22W | 3.05 |

| Variant | protein stability index |
| --- | --- |
| S22M | 1.42 |
| S22Y | 1.98 |
| S22R | 1.83 |
| S22L | 1.42 |
| S22A | 2.14 |
| S22I | 1.65 |
| S22Q | 1.78 |
| S22K | 3.33 |
| S22E | 2.66 |
| P21T | 1.54 |
| P21H | 1.34 |
| P21G | 1.95 |
| P21V | 2.33 |
| P21K | 2.32 |
| P21E | 1.91 |
| P21R | 1.78 |
| P21A | 1.77 |
| P21N | 2.37 |
| P21D | 2.91 |
| P21S | 1.74 |
| P21C | 2.71 |
| P21F | 2.44 |
| P21Q | 1.94 |
| F14R | 1.7 |

| Variant | protein stability index |
| --- | --- |
| F14S | 2.8 |
| F14C | 2.24 |
| F14T | 3.11 |
| F14V | 2.68 |
| F14I | 2.58 |
| F14H | 2.88 |
| F14N | 3.05 |
| F14D | 2.79 |
| F14G | 4.12 |
| F14W | 2.01 |
| F14K | 3.03 |
| F14Y | 1.78 |
| F14M | 2.44 |
| F14E | 3.34 |
| F14Q | 3.71 |
| F14A | 3.84 |
| F14P | 2.99 |
| F14L | 2.41 |

Variants of: B2
Assay: as above
Details: c terminus: a fixed tail appended

| Variant | protein stability index |
| --- | --- |
| S3D | 3.9 |
| S3I | 2.02 |
| S3E | 3.87 |
| S3V | 2.29 |
| S3N | 3.17 |
| S3T | 2.42 |
| S3Y | 2.34 |
| S3P | 3.22 |
| S3K | 2.82 |
| S3A | 3.9 |
| S3G | 3.39 |
| S3W | 2.32 |
| S3C | 3.02 |
| S3R | 3.04 |
| S3Q | 2.68 |
| S3L | 1.92 |
| S3M | 2.38 |
| S3F | 1.94 |
| S3H | 2.95 |
| H4G | 3.03 |
| H4S | 3.2 |
| H4A | 3 |
| H4R | 2.39 |
| H4M | 3.97 |
| H4P | 2.72 |

| Variant | protein stability index |
| --- | --- |
| H4K | 2.54 |
| H4N | 3.27 |
| H4F | 1.88 |
| H4L | 2.34 |
| H4Y | 3.21 |
| H4W | 2.65 |
| H4I | 2.09 |
| H4C | 2.22 |
| H4T | 2.79 |
| H4V | 2.5 |
| H4D | 3.55 |
| H4E | 3.5 |
| H4Q | 2.52 |
| L6M | 3.21 |
| L6C | 3.71 |
| L6T | 3.2 |
| L6N | 4.03 |
| L6G | 4.11 |
| L6D | 4.14 |
| L6E | 5.2 |
| L6F | 3.52 |
| L6R | 3.54 |
| L6I | 2.83 |
| L6Y | 2.77 |
| L6H | 3.69 |

| Variant | protein stability index |
| --- | --- |
| L6W | 2.96 |
| L6P | 4.53 |
| L6Q | 3.72 |
| L6A | 3.83 |
| L6K | 3.92 |
| L6V | 3.7 |
| L6S | 3.99 |
| Y5I | 2.81 |
| Y5W | 2.53 |
| Y5S | 4.56 |
| Y5C | 3.61 |
| Y5E | 3.21 |
| Y5N | 3.8 |
| Y5D | 4.45 |
| Y5G | 3.74 |
| Y5M | 2.83 |
| Y5L | 2.02 |
| Y5H | 3.93 |
| Y5A | 2.59 |
| Y5P | 4.47 |
| Y5V | 3.28 |
| Y5Q | 4.29 |
| Y5R | 3.38 |
| Y5K | 3.43 |
| Y5F | 2.77 |

| Variant | protein stability index |
| --- | --- |
| Y5T | 3.7 |
| S2H | 3.02 |
| S2I | 2.07 |
| S2K | 2.46 |
| S2M | 1.49 |
| S2C | 2.27 |
| S2R | 2.39 |
| S2P | 3.01 |
| S2G | 2.78 |
| S2Q | 2.9 |
| S2E | 3.3 |
| S2A | 2.14 |
| S2Y | 1.96 |
| S2W | 2.7 |
| S2T | 2.84 |
| S2V | 2.64 |
| S2N | 3.15 |
| S2L | 1.95 |
| S2F | 1.1 |
| S2D | 3.46 |
| Q7P | 3.31 |
| Q7G | 3.23 |
| Q7K | 2.84 |
| Q7N | 2.84 |
| Q7C | 2.42 |

| Variant | protein stability index |
| --- | --- |
| Q7M | 3.79 |
| Q7A | 2.39 |
| Q7F | 1.57 |
| Q7D | 3.9 |
| Q7L | 2.22 |
| Q7E | 2.73 |
| Q7I | 1.94 |
| Q7H | 3.58 |
| Q1Y | 2.53 |
| Q1K | 2.5 |
| Q1C | 3.1 |
| Q1S | 3.16 |
| Q1L | 2.78 |
| Q1P | 3.77 |
| Q1E | 2.72 |
| Q1R | 3.1 |
| Q1A | 2.78 |
| Q1H | 2.04 |
| Q1G | 3.6 |
| Q1N | 3.13 |
| Q1I | 2.28 |
| Q1W | 1.44 |
| Q1D | 2.94 |
| Q1V | 2.74 |
